Assay: label from the status in PepcDB records
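Further: failed if final PepcDB status was selected cloned or expressed and not failed if soluble or beyond.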

| Sequence | protein production |
| --- | --- |
| MYFLVTTLGVGFYLMKRMEKSEEDYLVAKRGLGAVPVGVTLALTVLGTPHILGVMESAYDIGLPAVWFSFAHAIMLAIVCLFTGRWARKLKVESVPEFLDVIFSNYWLRLMVGAVIAGAIFGICTLETQGLGVFVSILTGTSIEVGIVIGALIGILYVVLSGMKEVAWLNVLNAVILYIGIIAATFVLGSGLQNGWEGVNEFYISNDLAGKLNIFGSWEVFVGFALVNVLATVFFQGISQQGLHAALAAKSPDVLRKAMLIAVPVNGSFAVFAAVMGMAARATPEFAELGAKTATPAMIVSVLPTWASALLLATCLVAVLSSYAITLLAPTTIFVNDIYKAVLKPNASHEELLRLSRILTVLLAVAALIPAVSLPPILAAMMWLFSWLVPVFWFVIFGLFWKRSAPAAIITCLLVWVTINAWTMTPLPEVLGAPGWLHQVYLALIVTLVIGSLLNAVLPGKPGLFREKALAVRG | failed |
| MRPLARLRGRRVVPQRSAGELDAMAAAGAVVAAALRAIRAAAAPGTSSLSLDEIAESVIRESGATPSFLGYHGYPASICASINDRVVHGIPSTAEVLAPGDLVSIDCGAVLDGWHGDAAITFGVGALSDADEALSEATRESLQAGIAAMVVGNRLTDVAHAIETGTRAAELRYGRSFGIVAGYGGHGIGRQMHMDPFLPNEGAPGRGPLLAAGSVLAIEPMLTLGTTKTVVLDDKWTVTTADGSRAAHWEHTVAVTDDGPRILTLG | failed |
| MANTSSDWAGAPQNASADGEFVRDTNYIDDRIVADVPAGSEPIAQEDGTFHWPVEAGRYRLVAARACPWAHRTVITRRLLGLENVISLGLTGPTHDVRSWTFDLDPNHLDPVLQIPRLQDAYFNRFPDYPRGITVPALVEESSKKVVTNDYPSITIDFNLEWKQFHREGAPNLYPAELREEMAPVMKRIFTEVNNGVYRTGFAGSQEAHNEAYKRLWVALDWLEDRLSTRRYLMGDHITEADIRLYPTLVRFDAVYHGHFKCGRNKITEMPNLWGYLRDLFQTPGFGDTTDFTEIKQHYYITHAEINPTRIVPVGPDLSGFATPHGREKLGGSPFAEGVTLPGPIPAGEEVKNPEPFQK | not failed |
| MTELRPGGPMYGPTPPLPLPTDRLQFAMPPMYESLDDERTHRKERLAGALRLFGRLGFEDGVSGHITARDPEYSDCFWVNPFGMPFKHVTVSDLVMVNASGQVIEGRYHVNQAAFTVHAQVHAARPDVVAVAHCHSVHGRALSALGDLLDPITQESCAFYEDHALYDAYTGVAVDAEEGRRIASALDTRKALVLRNHGLLTVGDSVDAAAWWFVSMERSCQVQLTARAAGRPVLIDHKQAVATREQLGGDLVAWINYQPLWQDISRSEPDLLS | failed |
| MTMTHLNRLILISLLFVSLLLKSSTASSTVVDEGNRTSRNFRYRTHRFVPRFNHHPYHVTPHRSCDSFIRPYARSMCIELQRIHRSSRKQPLLSPPPPEIDPRYGVDKRLVPSGPNPLHN | failed |
| MTPLMLMVVAGAGIALLLFLVLKYKFQPFVALMLVSIIVALVAGVKPADLVATIEGGMGKTLGHIAIIIALGAMIGRIIELSGGAEALAKTLINRFGNRRTPLALTVAGFMVGIPVFFEVGVIILMPLAYGVARAARKPLLIFALPMCAALLAVHAFLPPHPGAVAAASQLGADLGRVLMLGIPIVAVLCMIGYFVAGRMTRKTYPMTDDIRAEVYGPHVTNEDLEAWARNDYSGAREATETKTLGAEESASSLASKLPPAPAPGFGLIIALILLPIVLILMGTLATTLLPATSTLRAVLTVLGAPLVALLIDTLLCAWLLGSRRGWSRTQVSDVIGSALPGVAMVILIAGAGGVFGKVLVDTGIGAVVSEALRNTGLPVLALGFLLTLLLRAVQGSTTVALVTTAGILSPLIATLDLSANHLALLCLAMGGGGLAMSHINDAGYWMFTKLAGLNVADGLRTWTVLVTLLGTLGFVITLLLWPFV | failed |
| MMPDKKGYIIDIDGVIGKSVTPIPEGVEGVKKLKELGKKIIFVSNNSTRSRRILLERLRSFGLEVGEDEILVATYATARFIAREKPNAKVFTTGEEGLIEELRLAGLEIVDYDEAEYLVVGSNRKINFELMTKALRACLRGIRYIATNPDRIFPAEDGPIPGTGMIIGALYWMTGREPDVVVGKPSEVIMREALDILGLDAKDVAVVGDQIDVDVAAGKAIGAETVLVLTGVTTRENLDQMIERHGLKPDYVFNSLKDMVEALEG | not failed |
| MIVEERIYRIRGGKMQEYLKLVREEGIAIQAPILGNLIGYFVTDIGPLSQVIHMWGYASLDDRAERRGKLAEDQRWQAFIPRLSVLIESSENRILLPTDFSPLR | not failed |
| MDRNIDQELVSIIIPTHNRYESLIRAVKSCLHQSYKNIEVIIIDDNYSNVNLRNKIIHQFGYTNHRIKLILSNEDLGATNARNIGIKNSRGKYISFLDDDDEYMPDRILKLMACFKKSRMKNLALVCSYGIIIYPNGTREEEKTDFVGNPLFVQMVHNIAGTSFWLCKKEVLELINGFEKIDSHQDGVVLLKLLVQGYQIDIVREFLVNYYAHSKENGITGVTQKTINADEEYYNYCRKYFNLLSFNERILVTKKYYSLNIKRLLLIGDKCKALKVIKKAREEKIFNEFLF | failed |
| MAIKFQYNKTSLQQLEKQLKVRVRTLPIIKNKESALRMEVKRCKTEAAGLEERLEKQIQAYEAMFALWNEFDASLIKVSDVHLGIKKIAGVRVPLLENVDFDIRPYSLFNSPKWYSDGIYLLKGLAQTAIEREFMLAKLNLLEHARKKTTQKVNLFEKVQIPGYQDALRKIKRFMEDEENLSKSSQKILKSIQEKRKEAEA | not failed |
| MVELEKEKIVWIAIILLIIFLVWETLKDLIAPIVFGMAASYIAYPFHIKLSKKVGKRNSVLILSGILSIFSLIFFVGVTLWITDTLKNLYNYLDAFFSWLSTLNVPGFLSSLFDALATSFPEKLRSILLQYTLSLPKLALQLIVFLAVFYATLLNADFLAKEIYELLPLTNRELGEKMIEKVKDTVDAILKTWLFFSVVKGIFLALGFYLFKISNVAGSIAAGVLCIVLELLPVVGGWIMWLAGAIILLRRSMLLAIIFAIYGIITISPIPDYFLKPKFAKERAKVSSVVALVGIFGGWIAFGAVGIILGPIAIGLLLALIDAWREIGTKQPSKAHRSQDA | failed |
| MSNKEGSGGFRKRKHDNFPHNQRREGKDVNSSSPVMLAFKSFQQELDARHDKYERLVKLSRDITVESKRTIFLLHRITSAPDMEDILTESEIKLDGVRQKIFQVAQELSGEDMHQFHRAITTGLQEYVEAVSFQHFIKTRSLISMDEINKQLIFTTEDNGKENKTPSSDAQDKQFGTWRLRVTPVDYLLGVADLTGELMRMCINSVGNGDIDTPFEVSQFLRQVYDGFSFIGNTGPYEVSKKLYTLKQSLAKVENACYALKVRGSEIPKHMLADVFSVKTEMIDQEEGIS | failed |
| RKEDHARLRALNGLLYKALTDLLCTPEVSQELYDLNVELSKVSLTPDFSACRAYWKTTLSAEQNAHMEAVLQRSAAHMRHLLMSQQTLRNVPPIVFVQDKGNAALAELDQLLAVAD | not failed |
| TVNVTTKKTPPSQPPGNVVWNATDTKVLLNWEQVKAMENESEVTGYKVFYRTSSQNNVQVLNTNKTSAELVLPIKEDYIIEVKATTDGGDGTSSEQIRIPRITS | not failed |
| ALPDPVKPKAPKAVNPFHLGMAGYTFVNFDLDTTLKTLERLDIHYLCIKDFHLPLNSTDEQIRAFHDKCAAHKVTGYAVGPIYMKSEEEIDRAFDYAKRVGVKLIVGVPNYELLPYVDKKVKEYDFHYAIHLHGPDIKTYPDATDVWVHTKDLDPRIGMCLDVGHDLRNGCDPVADLKKYHTRVFDMHIKDVTDSSKAGVGIEIGRGKIDFPALIRMMREVNYTGMCSLEYEKDMKDPFLGIAESIGYFKAVSDLT | not failed |
| MEGTLSFVSGFAPAVYRRELFRHRCVTTAPEARAWPRLGLLRANSGARLSRVDITPEIYKRLVSMAKRTEGNFSAVAGAILESYLTAATNRDLRAVIFDMDGVLCDSERLSRAAGVEYFRRYHGVWPTEKDFADFAGTGEAAFLSGVARRYSVKDFDVNKAKEGFFNIYVNEYVSALEPFEGVREFIQQIKTMGLKTALASSADAIKVHANLSAIGFERDMFDFVTRSDEIANKKPAPDIFLAAAEGLGVPPESCVVIEDAPAGVLAAKRARMRCVAVATSVSAQLLWDAGADIVRPAPQYIMLDDIVITDDADASAPASASQE | failed |
| MENKEISYEIIDFSGETNVQFRTSVDPGSYIPTHWHRAIEIIYMQEGSLDVIVESESFTIYKGDCILVNGNVLHSTKCTAPNTAILLQIPLNFMEKYIPNLGQLIFLWDYRTEDPVKKTKLMMLKTTLEQLQVINDIQPDGYLLRFNSLIFELMFQLYHNFSVQVFPQDINHKKKEMDRLDP | not failed |
| DQKGDKVVIRGNNYVSIATGLNWYLKYYAGIHLSWNGMQAKLPAVLPPVTKKERRETTLPYRYDLNYCTFSYSMAFWDWNRWEKEIDWMALHGINIPLAVTGAEAVWHNVLDKLGYTKTEINEFISGPGFFAWWLMNNLEGWGGPNPDSWYTRQIALQKKILKRMREYGIEPVLPGYCGMVPHNAKEKLGLNVSDPGTWCGYRRPAFLQPSDPRFEEISSLYYKELEKLYGKANFYSMDPFHEGGNTAGVDLDAAGKAVMKAMKKANPKAVWVAQAWQANPRPKMIENLKAGDLLILDLTSECRPQWGDSTSEWYRKNGYGQHDWIYCMLLNYGGNVGLHGKMDNVIDNFYLAKADPHASATLKGVGMTPEGIENNPVMYELVMELPWRPDRFTKEEWLKEYVKARYGVDDPVVQAAWTNLANSIYNSPKNLTQQGTHESVFCARPAEDVYQVSSWSEMKDYYRPQEVIEAARLMVSVADRFKGNNNFEYDLVDIVRQALAEKGRLMQKAVTAAYRAGDKQLFALASGKFLDLILLQDKLLGTRPEFRVGKWIEEARALGDTPEEKELYEWNARVQITTWGNRNAADYGGLRDYAHKEWNGLLKDFYYMRWKLYFDFLSQRIEGKTPAEIDFYAIEEPWTKAANPYSAEAEGDCIEVAKQVMQAVE | failed |
| VTTVGFDVAARLGTLLTAMVTPFSGDGSLDTATAARLANHLVDQGCDGLVVSGTTGESPTTTDGEKIELLRAVLEAVGDRARVIAGAGTYDTAHSIRLAKACAAEGAHGLLVVTPYYSKPPQRGLQAHFTAVADATELPMLLYDIPGRSAVPIEPDTIRALASHPNIVGVKDAKADLHSGAQIMADTGLAYYSGDDALNLPWLAMGATGFISVIAHLAAGQLRELLSAFGSGDIATARKINIAVAPLCNAMSRLGGVTLSKAGLRLQGIDVGDPRLPQVAATPEQIDALAADMRAASVLR | not failed |
| MEVMVFTPKGEIKRLPQGATALDFAYSLHSDLGDHCIGAKVNHKLVPLSYVLNSGDQVEVLSSKSQQPTELEHHHHHH | not failed |
| MTAILLHNVAKSYRSYDHPWETLWEVFTKTRRHREWTALHPLSLEIAHGEVVGIVGTNGAGKSTLLKLIAGTLTPSAGDIRVNGHVAALLELGAGFHPDMTGRENVYLGASVMGLSSERVDRLYDGIVEFAGLGEFMDQPVKTYSSGMYMRLAFAVATAADPDVLILDEALSVGDGAFARKSFERIIGYKDAGKTILFCSHSLYQVEAICSRVLWLDHGRLVMDGEPARVVSAYAEFLGGGGEGCGTPDQPAPAAVAGSGVGRLTKVEVEADGVEGRKLTVRSGQTDLTVAVGFASDPALPPPSVGLTITGSNGWAVTSASTSNDGLTISRRPDGSGEVELSFPRFPLLKGAYWVNVFLLCEQGIHLYDRIEHAAELEVVQDGLEQGVVSLPRRWSVNGAPASAVSPTVPTVAAWLEHHHHHH | failed |
| MIWILASLIAGIALRAWSVFILPLAYIIGRRNRDLGLLTYFLYGVLLVREVFVRDLISEEAFVSLGLLVPSVLALREIGEEFRVDVRGLVGLGVMSLGFIYKPALVLGVIITGISSIPWIELSILTLLFLVSYVAREHQELVVVGFVLVMSILLAKPIERREMRVKSGRGF | failed |
| LSPQVRTAHIGDVPVLVRLMSEFYQEAGFALPHDAAIRAFKALLGKPDLGRIWLIAEGTESVGYIVLTLGFSMEYGGLRGFVDDFFVRPNARGKGLGAAALQTVKQGCCDLGVRALLVETGPEDHPARGVYSRAGFEESGRMLLGQALAPPIHEA | not failed |
